In the Immune Epitope Database (IEDB):

Key:
Details in all cases: source organism: Vaccinia virus WR
HLA-A*30:02 [1] = test: IEDB peptide-MHC binding, purified MHC/competitive/radioactivity; ≥ and ≤ were set here for values at or beyond the usual limits of such assays
HLA-A*29:02 [2] = test: as above
HLA-A*01:01 [3] = test: as above
HLA-A*26:01 [4] = test: IEDB peptide-MHC binding, purified MHC/competitive/radioactivity; filed as Kd, often an IC50 or EC50 that approximates it; ≥ and ≤ were set here for values at or beyond the usual limits of such assays
HLA-A*03:01 = test: IEDB peptide-MHC binding, purified MHC/competitive/radioactivity; ≥ and ≤ were set here for values at or beyond the usual limits of such assays
HLA-A*68:01 [5] = test: as above
HLA-A*11:01 = test: as above
HLA-A*31:01 [6] = test: IEDB peptide-MHC binding, purified MHC/competitive/radioactivity; filed as Kd, often an IC50 or EC50 that approximates it; ≥ and ≤ were set here for values at or beyond the usual limits of such assays
HLA-A*33:01 = test: as above
HLA-B*54:01 [7] = test: IEDB peptide-MHC binding, purified MHC/competitive/radioactivity; ≥ and ≤ were set here for values at or beyond the usual limits of such assays
HLA-B*07:02 = test: as above
HLA-B*35:01 [8] = test: IEDB peptide-MHC binding, purified MHC/competitive/radioactivity; filed as Kd, often an IC50 or EC50 that approximates it; ≥ and ≤ were set here for values at or beyond the usual limits of such assays
HLA-B*51:01 = test: as above
HLA-B*53:01 = test: as above
HLA-A*02:06 = test: IEDB peptide-MHC binding, purified MHC/competitive/radioactivity; ≥ and ≤ were set here for values at or beyond the usual limits of such assays
HLA-A*02:03 = test: as above
HLA-A*02:02 = test: as above
HLA-A*68:02 = test: as above
HLA-A*24:02 = test: as above
HLA-A*23:01 = test: as above
HLA-A*31:01 [9] = test: as above
HLA-A*29:02 [10] = test: IEDB peptide-MHC binding, purified MHC/competitive/radioactivity; filed as Kd, often an IC50 or EC50 that approximates it; ≥ and ≤ were set here for values at or beyond the usual limits of such assays
HLA-A*01:01 [11] = test: as above
HLA-B*35:01 [12] = test: IEDB peptide-MHC binding, purified MHC/competitive/radioactivity; ≥ and ≤ were set here for values at or beyond the usual limits of such assays
HLA-B*54:01 [13] = test: IEDB peptide-MHC binding, purified MHC/competitive/radioactivity; filed as Kd, often an IC50 or EC50 that approximates it; ≥ and ≤ were set here for values at or beyond the usual limits of such assays
HLA-A*68:01 [14] = test: as above
HLA-A*26:01 [15] = test: IEDB peptide-MHC binding, purified MHC/competitive/radioactivity; ≥ and ≤ were set here for values at or beyond the usual limits of such assays
HLA-A*30:02 [16] = test: IEDB peptide-MHC binding, purified MHC/competitive/radioactivity; filed as Kd, often an IC50 or EC50 that approximates it; ≥ and ≤ were set here for values at or beyond the usual limits of such assays

Work on FLSMLNLTKY yielded an IC50 (HLA-A*30:02 [1]) of 500 nM, an IC50 (HLA-A*29:02 [2]) of 154 nM and an IC50 (HLA-A*01:01 [3]) of 267 nM. It also gave a Kd (HLA-A*26:01 [4]) of 7830 nM.

With VTSSGAIYK the IC50 (HLA-A*03:01) was 10 nM, the IC50 (HLA-A*68:01 [5]) was 24 nM and the IC50 (HLA-A*11:01) was 3.1 nM. The Kd (HLA-A*31:01 [6]) was 3970 nM and the Kd (HLA-A*33:01) was no less than 21400 nM.

For RPMSLRSTII, the IC50 (HLA-B*54:01 [7]) was 265 nM, the IC50 (HLA-B*07:02) was 0.43 nM and the Kd (HLA-B*35:01 [8]) was no less than 45900 nM. The Kd (HLA-B*51:01) was 9620 nM and the Kd (HLA-B*53:01) was 1230 nM.

In the case of FLNISWFYI, the IC50 (HLA-A*02:06) is reported as 1 nM, the IC50 (HLA-A*02:03) is reported as 0.33 nM and the IC50 (HLA-A*02:02) is reported as 0.17 nM. For the same sequence, the IC50 (HLA-A*68:02) was 240 nM.

In the case of VWINNSWKF, the IC50 (HLA-A*24:02) is reported as 6.4 nM, the IC50 (HLA-A*29:02 [2]) is reported as 4.9 nM and the IC50 (HLA-A*23:01) is reported as 5.3 nM.

For QSITRSLIY, the IC50 (HLA-A*30:02 [1]) was 291 nM, the IC50 (HLA-A*29:02 [2]) was 295 nM and the IC50 (HLA-A*01:01 [3]) was 74 nM. The Kd (HLA-A*26:01 [4]) was 4980 nM.

With KTKNFTIDFK the IC50 (HLA-A*31:01 [9]) was 14 nM, the IC50 (HLA-A*03:01) was 11 nM and the IC50 (HLA-A*68:01 [5]) was 144 nM. The IC50 (HLA-A*11:01) was 22 nM and the Kd (HLA-A*33:01) was no less than 40400 nM.

For SQSDTVFDY, the IC50 (HLA-A*30:02 [1]) was 2.3 nM, the Kd (HLA-A*26:01 [4]) was 1860 nM and the Kd (HLA-A*29:02 [10]) was 844 nM. For the same sequence, the Kd (HLA-A*01:01 [11]) was 3020 nM.

In the case of HPRHYATVM, the IC50 (HLA-B*35:01 [12]) is reported as 63 nM, the IC50 (HLA-B*07:02) is reported as 0.87 nM and the Kd (HLA-B*54:01 [13]) is reported as 4380 nM. The Kd (HLA-B*51:01) was 14700 nM and the Kd (HLA-B*53:01) was 3060 nM.

KLKIISNDYK was tested, and the IC50 (HLA-A*31:01 [9]) was 137 nM, the IC50 (HLA-A*03:01) was 4.5 nM and the IC50 (HLA-A*11:01) was 464 nM. It also gave a Kd (HLA-A*68:01 [14]) of no less than 50000 nM and a Kd (HLA-A*33:01) of no less than 50000 nM.

VTDTNKFDNY gave an IC50 (HLA-A*30:02 [1]) of 256 nM, an IC50 (HLA-A*01:01 [3]) of 1.6 nM and a Kd (HLA-A*26:01 [4]) of no less than 50000 nM. For the same sequence, the Kd (HLA-A*29:02 [10]) was no less than 50000 nM.

FTIDFKLKY gave an IC50 (HLA-A*26:01 [15]) of 21 nM, an IC50 (HLA-A*29:02 [2]) of 1.4 nM and an IC50 (HLA-A*01:01 [3]) of 60 nM. The Kd (HLA-A*30:02 [16]) was 1050 nM.

Work on NQVKFYFNK yielded an IC50 (HLA-A*31:01 [9]) of 15 nM, an IC50 (HLA-A*03:01) of 192 nM and an IC50 (HLA-A*68:01 [5]) of 5.8 nM. The IC50 (HLA-A*11:01) was 2.2 nM and the Kd (HLA-A*33:01) was 822 nM.

In the case of DMCDIYLLY, the IC50 (HLA-A*26:01 [15]) is reported as 82 nM, the IC50 (HLA-A*30:02 [1]) is reported as 55 nM and the IC50 (HLA-A*29:02 [2]) is reported as 89 nM. The IC50 (HLA-A*01:01 [3]) was 28 nM.
